Four molecules from patent publication US20250000992A1 (Eli Lilly, published 2025) can be followed below.

Assay [1] concerns the target Human TfR on HEK293 cells (human, UniProt P02786 1-760). Put plainly: cell-based or functional assay.
For assay [2], the target named is T1, Sortilin receptor on HEK293 cells (UniProt Q99523 78-831, limits assumed).
T1 construct: whole, on cells
The experiment in a line: told with the HEK293 cathepsin D assay (FIG. 5); no direct binding assay described.

Assay [3] deals with T2, Human TfR1 ECD, hexa-histidine tagged (human, UniProt P02786 89-760).
T2 construct: extracellular domain; Made in 293 cells, purified by IMAC and SEC; amine coupled to a CM3 chip; also called hTfR1; not shown: hexa-histidine tag
The experiment in a line: SPR, Biacore T200, 25 C, His-tagged ECD amine coupled to CM3 chip, construct injected, 1:1 fit. The protocol:
(§1) To determine the binding kinetics and affinity of H09-PGRN and BACDE to human TfR1 (hTfR1), human TfR2 (hTfR2) and cynomolgus TfR1, binding affinities and kinetics for antibody to antigen were determined using a BIACORE® T200 instrument. The binding kinetics and affinity of antibodies H09-PGRN and BACDE to human TfR1 ECD were determined using surface plasmon resonance biosensor such as BIAcore® T200 (GE Healthcare, Piscataway, N.J.). Briefly described, BIAcore® T200 instrument is used to measure the binding kinetics for Sandwich Ex. 1 (H09-PGRN-C90.43) and Sandwich Ex. 2 (H09-PGRNΔpGF-C90.43 to hTfR1, hTfR2 and cyno Tfr1 via surface plasmon resonance (SPR) at 25° C. Samples are dissolved in 1×HBS-EP+running buffer (Teknova cat. #H802) and His tagged ECD of the hTfR1, hTfR2, and cyno TfR was amine coupled to the Cytiva CM3 Series S sensor chip.
(§2) Binding is evaluated using multiple analytical cycles. Each cycle is performed at 25° C. at a flow rate of 50 μl/min for ligand association and dissociation. Each kinetic cycle consists of the following steps: injection of the Sandwich Ex. 1 (H09-PGRN-C90.43) and Sandwich Ex. 2 (H09-PGRNΔpGF-C90.43) over all four flow cells (starting at 125 nM and using two-fold serial dilutions for each cycle) for 240 seconds and followed by 900 seconds for dissociation phase, and regeneration using 3 M MgCl2 […] over a 30 s contact time. Association (i e., kₒₙ) and dissociation rates (i.e., Koff) for each are evaluated using standard double referencing and fit to “1:1 (Langmuir) binding” model in the BiaEvaluation software in batch mode. The affinity (KD) is calculated from the binding kinetics according to the relationship K)=Koff/Kon.

The target in assay [4] is T3, Cynomolgus TfR1 ECD, His tagged (cynomolgus, UniProt H9EXL1 89-760 (rhesus entry)).
T3 construct: extracellular domain; Purchased from SYNGENE; also called cyno TfR1; cyno Tfr1; not shown: His tag
Described as above. The protocol: as §1, §2

For assay [5], the target named is T1, Sortilin receptor on HEK293 cells. The experiment in a line: cell-based or functional assay.

B1: Sandwich Ex. 4 (H3.03-PGRN-C90.43) (Fab)
heavy: EVQLVESGGGLVKPGGSLRLSCVASGFTFSSYSMNWVRQAPGKGLEWVSSISRSSSYIYYADSVKGRFTISRDNAKNSLYLQMNSLRAEDTAVYYCARIHGYSNSDAFDKWGQGTLVTVSSASTKGPCVFPLAPSSKSTSGGTAALGCLVKDYFPEPVTVSWNSGALTSGVHTFPAVLQSSGLYSLSSVVTVPSSSLGTQTYICNVNHKPSNTKVDKKVEPKSCDKTHTGGGGQGGGGQGGGGQTRCPDGQFCPVACCLDPGGASYSCCRPLLDKWPTTLSRHLGGPCQVDAHCSAGHSCIFTVSGTSSCCPFPEAVACGDGHHCCPRGFHCSADGRSCFQRSGNNSVGAIQCPDSQFECPDFSTCCVMVDGSWGCCPMPQASCCEDRVHCCPHGAFCDLVHTRCITPTGTHPLAKKLPAQRTNRAVALSSSVMCPDARSRCPDGSTCCELPSGKYGCCPMPNATCCSDHLHCCPQDTVCDLIQSKCLSKENATTDLLTKLPAHTVGDVKCDMEVSCPDGYTCCRLQSGAWGCCPFTQAVCCEDHIHCCPAGFTCDTQKGTCEQGPHQVPWMEKAPAHLSLPDPQALKRDVPCDNVSSCPSSDTCCQLTSGEWGCCPIPEAVCCSDHQHCCPQGYTCVAEGQCQRGSEIVAGLEKMPARRASLSHPRDIGCDQHTSCPVGQTCCPSLGGSWACCQLPHAVCCEDRQHCCPAGYTCNVKARSCEKEVVSAQPATFLARSPHVGVKDVECGEGHFCHDNQTCCRDNRQGWACCPYRQGVCCADRRHCCPAGFRCAARGTKCLRREAPRWDAPLRDPALRQLLGGGGQGGGGQGGGGQEVQLLESGGGLVQPGGSLRLSCAASGRYIDETAVAWFRQAPGKGREFVAGIGGGVDITYYADSVKGRFTISRDNSKNTLYLQMNSLRPEDTAVYYCGARPGRPLITSKVADLYPYWGQGTLVTVSSPP
light: DIQMTQSPSAMSASVGDRVTITCRASQGISNYLAWFQQKPGKVPKRLIYAASSLQSGVPSRFSGSGSGTEFTLTISSLQPEDFATYYCLQHNSYPRTFGQGTKVEIKRTVAAPSVFIFPPSDEQLKSGTASVVCLLNNFYPREAKVQWKVDNALQSGNSQESVTEQDSKDSTYSLSSTLTLSKADYEKHKVYACEVTHQGLSSPVTKSFNRGEC
notes: Fab fusion with the H3.03 Fab in place of 8D3
Turning to B1, the “Mature Cathepsin D levels in cell lysate (ELISA), HEK293 cells, 100 ng/mL, 24 hours” value in assay [1] came out at 66. Further, in assay [2], the binding result was “no binding”.

B2: Sandwich Ex. 2 (H09-PGRNΔpGF-C90.43) (Fab)
heavy: EVQLVESGGGLVKPGGSLRLSCVASGFTFSSYSMNWVRQAPGKGLEWVSSISSSSSYIYYADSVKGRFTISRDNAKNSLYLQMNSLRAEDTAVYYCARRHGYSNSDAFDNWGQGTLVTVSSASTKGPSVFPLAPSSKSTSGGTAALGCLVKDYFPEPVTVSWNSGALTSGVHTFPAVLQSSGLYSLSSVVTVPSSSLGTQTYICNVNHKPSNTKVDKKVEPKSCDKTGGGGQGGGGQGGGGQTPTGTHPLAKKLPAQRTNRAVALSSSVMCPDARSRCPDGSTCCELPSGKYGCCPMPNATCCSDHLHCCPQDTVCDLIQSKCLSKENATTDLLTKLPAHTVGDVKCDMEVSCPDGYTCCRLQSGAWGCCPFTQAVCCEDHIHCCPAGFTCDTQKGTCEQGPHQVPWMEKAPAHLSLPDPQALKRDVPCDNVSSCPSSDTCCQLTSGEWGCCPIPEAVCCSDHQHCCPQGYTCVAEGQCQRGSEIVAGLEKMPARRASLSHPRDIGCDQHTSCPVGQTCCPSLGGSWACCQLPHAVCCEDRQHCCPAGYTCNVKARSCEKEVVSAQPATFLARSPHVGVKDVECGEGHFCHDNQTCCRDNRQGWACCPYRQGVCCADRRHCCPAGFRCAARGTKCLRREAPRWDAPLRDPALRQLLGGGGQGGGGQGGGGQEVQLLESGGGLVQPGGSLRLSCAASGRYIDETAVAWFRQAPGKGREFVAGIGGGVDITYYADSVKGRFTISRDNSKNTLYLQMNSLRPEDTAVYYCGARPGRPLITSKVADLYPYWGQGTLVTVSSPP
light: DIQMTQSPSAMSASVGDRVTITCRASQGISHYLVWFQQKPGKVPKRLIYAASSLQSGVPSRFSGSGSGTEFTLTISSLQPEDFATYYCLQHNSYPWTFGQGTKVEIKRTVAAPSVFIFPPSDEQLKSGTASVVCLLNNFYPREAKVQWKVDNALQSGNSQESVTEQDSKDSTYSLSSTLTLSKADYEKHKVYACEVTHQGLSSPVTKSFNRGEC
notes: also called H09 Fab-PGRNΔpGF-C90.43; H09-dPGF-C90.43
On to B2, for which, in assay [3], the affinity, expressed as Kd, was 7.12 nM; the koff came out at 0.0052 s⁻¹; the association rate constant (kon) is 730000 M⁻¹ s⁻¹. In assay [4], this molecule came in with an equilibrium dissociation constant (Kd) of 13 nM, a koff of 0.00318 s⁻¹ and an on-rate constant (kon) of 244000 M⁻¹ s⁻¹.

B3: Sandwich Ex. 1 (H09-PGRN-C90.43) (Fab)
heavy: EVQLVESGGGLVKPGGSLRLSCVASGFTFSSYSMNWVRQAPGKGLEWVSSISSSSSYIYYADSVKGRFTISRDNAKNSLYLQMNSLRAEDTAVYYCARRHGYSNSDAFDNWGQGTLVTVSSASTKGPSVFPLAPSSKSTSGGTAALGCLVKDYFPEPVTVSWNSGALTSGVHTFPAVLQSSGLYSLSSVVTVPSSSLGTQTYICNVNHKPSNTKVDKKVEPKSCDKTHTGGGGQGGGGQGGGGQTRCPDGQFCPVACCLDPGGASYSCCRPLLDKWPTTLSRHLGGPCQVDAHCSAGHSCIFTVSGTSSCCPFPEAVACGDGHHCCPRGFHCSADGRSCFQRSGNNSVGAIQCPDSQFECPDFSTCCVMVDGSWGCCPMPQASCCEDRVHCCPHGAFCDLVHTRCITPTGTHPLAKKLPAQRTNRAVALSSSVMCPDARSRCPDGSTCCELPSGKYGCCPMPNATCCSDHLHCCPQDTVCDLIQSKCLSKENATTDLLTKLPAHTVGDVKCDMEVSCPDGYTCCRLQSGAWGCCPFTQAVCCEDHIHCCPAGFTCDTQKGTCEQGPHQVPWMEKAPAHLSLPDPQALKRDVPCDNVSSCPSSDTCCQLTSGEWGCCPIPEAVCCSDHQHCCPQGYTCVAEGQCQRGSEIVAGLEKMPARRASLSHPRDIGCDQHTSCPVGQTCCPSLGGSWACCQLPHAVCCEDRQHCCPAGYTCNVKARSCEKEVVSAQPATFLARSPHVGVKDVECGEGHFCHDNQTCCRDNRQGWACCPYRQGVCCADRRHCCPAGFRCAARGTKCLRREAPRWDAPLRDPALRQLLGGGGQGGGGQGGGGQEVQLLESGGGLVQPGGSLRLSCAASGRYIDETAVAWFRQAPGKGREFVAGIGGGVDITYYADSVKGRFTISRDNSKNTLYLQMNSLRPEDTAVYYCGARPGRPLITSKVADLYPYWGQGTLVTVSSPP
light: DIQMTQSPSAMSASVGDRVTITCRASQGISHYLVWFQQKPGKVPKRLIYAASSLQSGVPSRFSGSGSGTEFTLTISSLQPEDFATYYCLQHNSYPWTFGQGTKVEIKRTVAAPSVFIFPPSDEQLKSGTASVVCLLNNFYPREAKVQWKVDNALQSGNSQESVTEQDSKDSTYSLSSTLTLSKADYEKHKVYACEVTHQGLSSPVTKSFNRGEC
notes: also called H09 Fab-PGRN-C90.43
In assay [3], B3 displayed a dissociation constant Kd of 7.29 nM, an off-rate (koff) of 0.00434 s⁻¹ and an on-rate constant (kon) of 595000 M⁻¹ s⁻¹. Moreover, in assay [4], the affinity, expressed as Kd, was 9.7 nM; the koff amounted to 0.0047 s⁻¹; the kon worked out at 485000 M⁻¹ s⁻¹.

B4: Sandwich Ex. 3 (8D3-PGRN-C90.43) (Fab)
heavy: EVQLVESGGGLVQPGNSLTLSCVASGFTFSNYGMHWIRQAPKKGLEWIAMIYYDSSKMNYADTVKGRFTISRDNSKNTLYLEMNSLRSEDTAMYYCAVPTSHYVVDVWGQGVSVTVSSASTKGPCVFPLAPSSKSTSGGTAALGCLVKDYFPEPVTVSWNSGALTSGVHTFPAVLQSSGLYSLSSVVTVPSSSLGTQTYICNVNHKPSNTKVDKKVEPKSCDKTHTGGGGQGGGGQGGGGQTRCPDGQFCPVACCLDPGGASYSCCRPLLDKWPTTLSRHLGGPCQVDAHCSAGHSCIFTVSGTSSCCPFPEAVACGDGHHCCPRGFHCSADGRSCFQRSGNNSVGAIQCPDSQFECPDFSTCCVMVDGSWGCCPMPQASCCEDRVHCCPHGAFCDLVHTRCITPTGTHPLAKKLPAQRTNRAVALSSSVMCPDARSRCPDGSTCCELPSGKYGCCPMPNATCCSDHLHCCPQDTVCDLIQSKCLSKENATTDLLTKLPAHTVGDVKCDMEVSCPDGYTCCRLQSGAWGCCPFTQAVCCEDHIHCCPAGFTCDTQKGTCEQGPHQVPWMEKAPAHLSLPDPQALKRDVPCDNVSSCPSSDTCCQLTSGEWGCCPIPEAVCCSDHQHCCPQGYTCVAEGQCQRGSEIVAGLEKMPARRASLSHPRDIGCDQHTSCPVGQTCCPSLGGSWACCQLPHAVCCEDRQHCCPAGYTCNVKARSCEKEVVSAQPATFLARSPHVGVKDVECGEGHFCHDNQTCCRDNRQGWACCPYRQGVCCADRRHCCPAGFRCAARGTKCLRREAPRWDAPLRDPALRQLLGGGGQGGGGQGGGGQEVQLLESGGGLVQPGGSLRLSCAASGRYIDETAVAWFRQAPGKGREFVAGIGGGVDITYYADSVKGRFTISRDNSKNTLYLQMNSLRPEDTAVYYCGARPGRPLITSKVADLYPYWGQGTLVTVSSPP
light: DIQMTQSPASLSASLEEIVTITCQASQDIGNWLAWYQQKPGKSPQLLIYGATSLADGVPSRFSGSRSGTQFSLKISRVQVEDIGIYYCLQAYNTPWTFGGGTKLELKRTVAAPSVFIFPPSDEQLKSGTASVVCLLNNFYPREAKVQWKVDNALQSGNSQESVTEQDSKDSTYSLSSTLTLSKADYEKHKVYACEVTHQGLSSPVTKSFNRGEC
notes: Fab fusion with the 8D3 Fab in place of H09
B4: the “Mature Cathepsin D levels in cell lysate (ELISA), HEK293 cells, 100 ng/mL, 24 hours” value in assay [5] is 100. Besides, the binding result in assay [2] is recorded as “no binding”.

One may read the Kd as the concentration at which binding is half-saturated. Read a high Kd as lower affinity. In general, koff refers to the first-order rate constant of dissociation. Usually kon stands for the second-order rate constant of association. Low values mean slow association, high ones fast association.
